In US5811533:
pKd: −log10 of the molar value.

Each sequence was assayed on PDGF (assay: filter). Settings: specificity.

Row | Sequence | pKd
1 | GGAAGCUUGAUGGGUGACACACGUCAUGCCGAGCU [ligand 44t] | 6.22
2 | GGCCGGUAGUCGCAUGGCCCAUCGCGCCCGG [ligand 100t] | 6.22

What follows are sequences tested on T1, VEGF165 (recombinant human vascular endothelial growth factor, 165 aa form) (Homo sapiens), P15692-4 (assay: filter). Settings: not given.
T1 sequence: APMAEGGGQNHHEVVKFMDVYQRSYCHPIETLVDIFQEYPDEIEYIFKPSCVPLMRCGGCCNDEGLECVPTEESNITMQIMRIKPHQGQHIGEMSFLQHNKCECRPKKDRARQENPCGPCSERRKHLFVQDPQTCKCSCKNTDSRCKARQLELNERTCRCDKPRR

Row | Sequence | pKd
3 | ATCCGCCTGATTAGCGATACTGGTGGACTAGAGGNCAGCAAACGATCCTTGGTTCGCGTCCACTTGAGCAAAATCACCTGCAGGGG [ssDNA 32] | 8.70
4 | ATCCGCCTGATTAGCGATACTGGTGTGAACCAGACCTACNGGAACGTTATCGCTTGTGACTTGAGCAAAATCACCTGCAGGGG [ssDNA 44] | 9.40
5 | CTACCTACGATCTGACTAGCACAAGGGGTCCTGNNGAATGGGGGAATACGCTAGCCGAAGCTTACTCTCATGTAGTTCCT [ssDNA b55] | 7.82
6 | CTACCTACGATCTGACTAGCATCCTTCCGAATGGGGGAAATGGCGNCCCAGCTTACTCTCATGTAGTTCCT [ssDNA b89] | 8.70
7 | CTACCTACGATCTGACTAGCCCACTGCAGAGAGTCAACCTTACGANGCCAAGGTTGCGGTGCTTAGCTTACTCTCATGTAGTTCCT [ssDNA b97] | < 9.00
8 | CTACCTACGATCTGACTAGCCCACTGCATAGAGAGTCGCAAGACACGGTGCTTTATTCNCCGCTTAGCTTACTCTCATGTAGTTCCT [ssDNA b62] | 8.54
9 | CTACCTACGATCTGACTAGCCCACTGCATAGAGATACTGGATTCGACNNNCCAAAGTTTCGGTGCTTAGCTTACTCTCATGTAGTTCCT [ssDNA b96] | 8.82
10 | CTACCTACGATCTGACTAGCTGCNNGCGGGCGGTTCTCCGGATGGGACCATAAGGCTTTAGCTTAGCTTACTCTCATGTAGTTCCT [ssDNA b54] | 8.60
11 | TGGACTAGAGGNCAGCAAACGATCCTTGGTTCGCGTCC [32t] | 7.77

Same assay, conditions: 2'-NH2 pyrimidines; random pool

Row | Sequence | pKd
12 | GGGAGACAAGAAUAACGCUCAANNNNNNNNNNNNNNNNNNNNNNNNNNNNNNUUCGACAGGAGGCUCACAACAGGC [Random RNA A (30N8)] | 7.08
13 | GGGAGGACGAUGCGGNNNNNNNNNNNNNNNNNNNNNNNNNNNNNNNNNNNNNNNNNNNNNNNNNNCAGACGACUCGCCCGA [Random RNA B (50N7)] | 6.62

Same assay, conditions: clone listed in families 1 and 2

Row | Sequence | pKd
14 | CTACCTACGATCTGACTAGCACGCAAGAGAGGTCNCCGAATGGCAGTCTCAGCCGCTAACAGCTTACTCTCATGTAGTTCCT [ssDNA b91] | 8.41

Same assay, conditions: random pool

Row | Sequence | pKd
15 | ATCCGCCTGATTAGCGATACTNNNNNNNNNNNNNNNNNNNNNNNNNNNNNNNNNNNNNNNNACTTGAGCAAAATCACCTGCAGGGG [starting random ssDNA pool] | 6.70
16 | GGGAGCUCAGAAUAAACGCUCAANNNNNNNNNNNNNNNNNNNNNNNNNNNNNNUUCGACAUGAGGCCCGGAUCCGGC [random RNA pool (30N)] | 6.70
